Each block holds one binder with its values, some of them ahead of it.
Assays:
[1] = biological target: T1, complex of V5-tagged FGFR1c and FLAG-tagged membrane-spanning murine Klotho isolated from transfected … (murine, UniProt O35082 35-1014); experiment: co-immunoprecipitation competition; competitor FGF23^28-251
T1 construct: Isolated from cell lysate on anti-V5 agarose beads; also called FGFR1c-Klotho complex (co-immunoprecipitated); binary FGFR-Klotho complex; not shown: FGFR1c, V5-tagged, expressed from a vector in HEK293-Klotho cells
Description: (§1) Co-immunoprecipitation may also be used to determine that an agent specifically binds the binary FGFR-Klotho complex. One aspect of the present invention utilizes co-immunoprecipitation studies. Subconfluent cultures of a HEK293 cell line ectopically expressing the FLAG-tagged membrane-spanning form of murine Klotho were transfected with expression vectors for V5-tagged FGFR1c, FGFR3c, or FGFR4. Two days later, the cells were lysed, and FGFR-Klotho complexes were isolated from cell lysate using anti-V5 agarose beads. The beads were then incubated with either FGF23¹⁸⁰⁻²⁵¹ or FGF23²⁸⁻²⁵¹ alone, or with mixtures of FGF23²⁸⁻²⁵¹ with either increasing FGF23¹⁸⁰⁻²⁵¹ or increasing FGF23¹⁸⁰⁻²⁰⁵. Bead-bound proteins were resolved on SDS-polyacrylamide gels, transferred to nitrocellulose membranes, and labeled using antibodies to Klotho, FGF23, and V5 epitope tag.

[2] = biological target: T2, complex of V5-tagged FGFR4 and FLAG-tagged membrane-spanning murine Klotho isolated from transfected … (murine, UniProt O35082 35-1014); experiment: as above
T2 construct: Isolated from cell lysate on anti-V5 agarose beads; also called FGFR4-Klotho complex; binary FGFR-Klotho complex; not shown: FGFR4, V5-tagged, expressed from a vector in HEK293-Klotho cells
Description: as §1

[3] = biological target: T3, 1:1 binary complex of the ectodomains of FGFR1c and Klotho (human; murine, UniProt O35082 35-982); experiment: SPR competition; FGF23^28-251 immobilized; reference FGF23^28-251 in solution
T3 construct: range 35-982; also called FGFR1c-Klotho complex; binary FGFR1c-Klotho complex; not shown: C-terminal FLAG tag
T3 sequence 1: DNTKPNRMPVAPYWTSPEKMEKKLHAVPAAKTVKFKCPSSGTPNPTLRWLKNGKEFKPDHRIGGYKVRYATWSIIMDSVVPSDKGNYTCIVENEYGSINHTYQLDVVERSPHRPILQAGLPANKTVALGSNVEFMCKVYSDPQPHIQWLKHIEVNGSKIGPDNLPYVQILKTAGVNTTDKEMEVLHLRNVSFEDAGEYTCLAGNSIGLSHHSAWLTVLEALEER
T3 sequence 2: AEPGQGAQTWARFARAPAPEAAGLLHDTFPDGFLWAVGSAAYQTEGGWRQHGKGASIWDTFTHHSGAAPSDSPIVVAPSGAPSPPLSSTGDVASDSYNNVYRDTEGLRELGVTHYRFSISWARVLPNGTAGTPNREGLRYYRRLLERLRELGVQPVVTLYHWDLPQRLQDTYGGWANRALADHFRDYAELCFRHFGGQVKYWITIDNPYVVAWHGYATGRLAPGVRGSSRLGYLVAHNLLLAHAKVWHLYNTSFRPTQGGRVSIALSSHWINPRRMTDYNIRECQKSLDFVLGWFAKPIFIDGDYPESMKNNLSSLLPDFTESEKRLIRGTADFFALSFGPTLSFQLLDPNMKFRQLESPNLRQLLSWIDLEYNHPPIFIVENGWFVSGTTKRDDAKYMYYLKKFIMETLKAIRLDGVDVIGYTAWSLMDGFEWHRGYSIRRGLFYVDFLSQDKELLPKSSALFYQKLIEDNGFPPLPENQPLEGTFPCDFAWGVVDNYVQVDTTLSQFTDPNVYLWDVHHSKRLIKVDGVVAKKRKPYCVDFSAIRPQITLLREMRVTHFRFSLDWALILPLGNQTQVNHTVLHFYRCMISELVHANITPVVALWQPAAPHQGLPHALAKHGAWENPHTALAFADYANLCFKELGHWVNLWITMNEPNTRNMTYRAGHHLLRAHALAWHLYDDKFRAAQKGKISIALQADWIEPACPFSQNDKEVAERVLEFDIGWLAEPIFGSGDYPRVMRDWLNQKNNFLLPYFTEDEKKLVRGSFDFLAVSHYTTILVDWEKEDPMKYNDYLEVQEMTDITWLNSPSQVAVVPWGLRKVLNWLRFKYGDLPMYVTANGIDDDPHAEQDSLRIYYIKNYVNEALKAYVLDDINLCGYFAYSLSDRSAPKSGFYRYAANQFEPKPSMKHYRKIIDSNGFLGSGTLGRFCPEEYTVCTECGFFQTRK
Description: To analyze FGF23 binding to the binary FGFR1c-Klotho complex, FGF23²⁸⁻²⁵¹ was coupled to a chip, and increasing concentrations of 1:1 complex of the ectodomains of FGFR1c and Klotho in HBS-EP buffer were passed over the chip. To measure binding of the C-terminal tail of FGF23 to the binary FGFR1c-Klotho complex, FGF23¹⁸⁰⁻²⁵¹ was immobilized on a chip, and increasing concentrations of 1:1 complex of the ectodomains of FGFR1c and Klotho in HBS-EP buffer were passed over the chip. To examine whether the C-terminal tail of FGF23 can compete with full-length FGF23 for binding to the binary FGFR1c-Klotho complex, FGF23²⁸⁻²⁵¹ was immobilized on a chip. Increasing concentrations of FGF23¹⁸⁰⁻²⁵¹ were mixed with a fixed concentration of 1:1 complex of the ectodomains of FGFR1c and Klotho in HBS-EP buffer, and the mixtures were passed over the chip. As a control, competition of FGF23 in solution with immobilized FGF23 for binding to the binary FGFR1c-Klotho complex was studied. Increasing concentrations of FGF23²⁸⁻²⁵¹ were mixed with a fixed concentration of 1:1 complex of the ectodomains of FGFR1c and Klotho in HBS-EP buffer, and the mixtures were passed over the FGF23 chip. […] As a control, competition of FGF23 C-terminal tail peptide in solution with immobilized FGF23 C-terminal tail peptide for binding to the binary FGFR1c-Klotho complex was analyzed. […]

T2 sequence (O35082 35-1014, one chain of several): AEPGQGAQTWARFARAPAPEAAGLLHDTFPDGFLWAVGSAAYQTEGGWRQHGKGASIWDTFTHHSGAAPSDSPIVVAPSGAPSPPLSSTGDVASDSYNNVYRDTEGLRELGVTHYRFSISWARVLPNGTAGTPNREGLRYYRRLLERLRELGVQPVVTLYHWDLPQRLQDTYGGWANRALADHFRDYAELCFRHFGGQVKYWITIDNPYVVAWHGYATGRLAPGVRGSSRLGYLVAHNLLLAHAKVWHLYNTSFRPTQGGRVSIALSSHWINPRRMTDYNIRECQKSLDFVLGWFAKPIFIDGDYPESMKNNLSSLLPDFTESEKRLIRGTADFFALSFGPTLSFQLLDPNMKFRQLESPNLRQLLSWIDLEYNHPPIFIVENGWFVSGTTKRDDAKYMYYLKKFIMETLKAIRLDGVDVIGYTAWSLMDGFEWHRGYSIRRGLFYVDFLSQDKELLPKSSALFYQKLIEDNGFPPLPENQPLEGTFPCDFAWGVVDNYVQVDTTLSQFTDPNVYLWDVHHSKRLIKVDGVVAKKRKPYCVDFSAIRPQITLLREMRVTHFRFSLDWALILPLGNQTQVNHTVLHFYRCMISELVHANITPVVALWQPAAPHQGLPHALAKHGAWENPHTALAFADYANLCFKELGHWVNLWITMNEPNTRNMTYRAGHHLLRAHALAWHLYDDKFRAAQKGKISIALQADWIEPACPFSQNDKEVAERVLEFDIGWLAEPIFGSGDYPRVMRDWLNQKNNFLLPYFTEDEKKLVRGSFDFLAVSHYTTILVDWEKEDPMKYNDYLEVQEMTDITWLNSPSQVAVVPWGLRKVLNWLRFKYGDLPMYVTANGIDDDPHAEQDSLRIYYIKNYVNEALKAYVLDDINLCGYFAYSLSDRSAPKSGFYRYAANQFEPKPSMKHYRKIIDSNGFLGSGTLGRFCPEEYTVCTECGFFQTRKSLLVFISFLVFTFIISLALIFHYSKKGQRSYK
T1 sequence (O35082 35-1014, one chain of several): as above

- fold reduced potency compared to the FGF23^180-251 peptide [1]: 100 fold
- fold reduced potency compared to the FGF23^180-251 peptide [2]: > 100 fold
- rightward shift of the dose-response curve compared to full-length FGF23 [3]: ~6 fold
B1: FGF23 C-terminal region peptide (S180 to S205), FGF23^180-205 (peptide)
peptide: SAEDDSERDPLNVLKPRARMTPAPAS
notes: Made by solid phase synthesis (GenScript)

- rightward shift of the dose-response curve compared to full-length FGF23 [3]: ~3 fold
B2: N-terminally hexahistidine-tagged 72-amino acid C-terminal tail of human FGF23 (S180 to I251), FGF23^180-251 (peptide)
peptide: SAEDDSERDPLNVLKPRARMTPAPASCSQELPSAEDNSPMASDPLGVVRGGRVNTHAGGTGPEGCRPFAKFI
notes: Expressed in E. coli; also called FGF23 C-terminal tail peptide; C-terminal tail of FGF23; not shown: N-terminal hexahistidine tag (six His)

— patent US20130184211A1 (NEW YORK UNIVERSITY, published 2013)
